From patent US20240279344A1 (CDR LIFE, published 2024)
Numbering of substitutions follows the chain as printed.

B1: M1139 (bispecific antibody, V domains shown)
VH: EVQLLESGGGSVQPGGSLRLSCTVSGFSLSNYAMSWVRQAPGKGLEWIGIVSSGGTTYAASWAKGRFTISKDTSKNTVYLQMNSLRAEDTASYYCAKDLYYGPTTYSAFNLWGQGTSVTVSS
VL: SYELTQPPSVSVSPGQTASITCTADTLSRSYASWYQQKPGQSPVLVIYRDTSRPSGIPERFSGSNSGNTATLTISGTQAMDEADYYCATRPSSGSNFQLFGGGTKLTVL
notes: Variant of humanized M0763; tested in SPR as anti-CD3 Fab x anti-MAGE-A4 scFv bispecific
B2: M1310 (bispecific antibody, V domains shown)
VH: EVQLLESGGGSVQPGGSLRLSCTVSGFSLSNYAMSWVRQAPGKGLEWIGIVSSGGTTYYASWAKGRFTISKDTSKNTVYLQMNSLRAEDTASYYCAKDLYYGPNTDYSAANLWGQGTSVTVSS
VL: B1 VL with L99A
notes: as for B1
B3: M1140 (bispecific antibody, V domains shown)
VH: B1 VH with A59Y, A60S
VL: B1 VL
notes: as for B1
B4: M1169 (bispecific antibody, V domains shown)
VH: B1 VH with A59Y, F109A
VL: B1 VL with Q98V
notes: as for B1
B5: M1171 (bispecific antibody, V domains shown)
VH: B1 VH with A59Y, F109L
VL: B1 VL
notes: as for B1
B6: M1298 (bispecific antibody, V domains shown)
VH: B1 VH with A59Y, F109A
VL: B1 VL with S92W, S93P
notes: as for B1
B7: M1309 (bispecific antibody, V domains shown)
VH: B1 VH with A59Y, T104S, S107F, A108V, F109A
VL: B1 VL with L99A
notes: as for B1
B8: M1178 (bispecific antibody, V domains shown)
VH: B1 VH with A59Y, F109A
VL: B1 VL with A88Q, T89A
notes: as for B1
B9: M1176 (bispecific antibody, V domains shown)
VH: B1 VH with A59Y, F109A
VL: B1 VL with N96V
notes: as for B1
B10: M1143 (bispecific antibody, V domains shown)
VH: B1 VH with A59Y, A63S
VL: B1 VL
notes: as for B1
B11: M1145 (bispecific antibody, V domains shown)
VH: B1 VH with A59Y, G65A
VL: B1 VL
notes: as for B1
B12: M1301 (bispecific antibody, V domains shown)
VH: B1 VH with A59Y, F109A
VL: B1 VL with P91D, S92F
notes: as for B1
B13: M1144 (bispecific antibody, V domains shown)
VH: B1 VH with A59Y, K64A
VL: B1 VL
notes: as for B1
B14: M1172 (bispecific antibody, V domains shown)
VH: B1 VH with A59Y, F109P
VL: B1 VL
notes: as for B1
B15: M1202 (bispecific antibody, V domains shown)
VH: B1 VH with A59Y, A108S, F109A
VL: B1 VL
notes: as for B1
B16: M1302 (bispecific antibody, V domains shown)
VH: B2 VH
VL: B1 VL
notes: as for B1
B17: M1300 (bispecific antibody, V domains shown)
VH: B1 VH with A59Y, F109A
VL: B1 VL with P91L, S92F
notes: as for B1
B18: M1177 (bispecific antibody, V domains shown)
VH: B1 VH with A59Y, F109A
VL: B1 VL with F97T, Q98V, L99V
notes: as for B1
B19: M1141 (bispecific antibody, V domains shown)
VH: B1 VH with A59Y, S61A
VL: B1 VL
notes: as for B1
B20: M1299 (bispecific antibody, V domains shown)
VH: B1 VH with A59Y, F109A
VL: B1 VL with S92F, S93P
notes: as for B1
B21: M1253 (bispecific antibody, V domains shown)
VH: B1 VH with A59Y, F109A
VL: B1 VL with L99A
notes: as for B1
B22: M1142 (bispecific antibody, V domains shown)
VH: B1 VH with A59Y, W62A
VL: B1 VL
notes: as for B1
B23: M1297 (bispecific antibody, V domains shown)
VH: B1 VH with A59Y, T104S, S107F, A108V, F109A
VL: B1 VL
notes: as for B1
B24: M0854 scFv (scFv)
scFv: QSVKESWGRLVTPGGSLTLTCTVSGIDLNNYAMGWVRQAPGKGLEWIGTINNDGATYYPSWARGRFTISKTSTTVDLKITSPTTEDTATYFCARTYGSNGDVYWGYFNLWGQGTLVTVSSGGGGSGGGGSGGGGSGGGGASALELTQTPASVEVAVGGTVTINCQASQSIGGALNWYQQKSGQPPKLLIYLASTLASGVSSRFKGSGSGTQFTLTISGVEAADAATYYCQQGYSASNIDNAFGGGTEVVVK
notes: Rabbit scFv identified by phage display
B25: M0848 scFv (scFv)
scFv: QEQLVESGGGLVTPGTPLTLTCTVSGFSLSSYAMGWVRQAPGKGLEWIGTINDGGTAFYASWVKGRFTISRTSTTVDLRVTSPTTEDTATYFCARAYGSNGDVYWGYFNLWGQGTLVTVSSGGGGSGGGGSGGGGSGGGGASELDLTQTPASVEVAVGGTVTIKCQASQSIGSYLSWYQQKPGQRPKLLIFRASTLASGVSSRFKGSGSGTQFTLTISGVECADAATYYCQQGYSSTNLDNVFGGGTEVVVK
notes: as for B24
B26: M0851 scFv (scFv)
scFv: QEQLEESGGGLVTPGTPLTLTCTASGFSLSSYAMIWVRQAPGKGLEWIGTINDGGTAFYASWVKGRFTISRTSTTVDLKITSPTTEDTATYFCARAYGSNGDVYWGYVNLWGQGTLVTISSGGGGSGGGGSGGGGSGGGGASELVMTQTPSSVSAAVGGTVTINCQASQNIGSVFAWYQQKPGQPPKLLIYKASSLASGVPSRFKGSGSGTQFTLTISGVEAADAATYYCQQGASSSNVDNIFGGGTEVVVK
notes: as for B24
B27: M0850 scFv (scFv)
scFv: QEQLEESGGGLVTPGTPLTLTCTASGFSLSSYAMIWVRQAPGKGLEWIGTINDGGTAFYANWVKGRFTISRTSTTVDLKMTSPTTEDTATYFCARAYGSNGDVYWGYVNLWGQGTLVTVSSGGGGSGGGGSGGGGSGGGGASELVMTQTPASVSEPVGGTVTIKCQASQSIGSNLAWYQQKPGQPPKLLIYAAANLASGVSSRFKGSRSGTEYTLTISGVQAADAATYYCQQGYSSSNVANVFGGGTELEIL
notes: as for B24
B28: M0855 scFv (scFv)
scFv: QQQLEESGGGLVTPGTPLTLTCTVSGIDLSSYAMGWVRQAPGKGLEWIGTINDGGSAFYASWVKGRFTISRTSTTVDLKITSPTAEDTATYFCAKTYGTNGDVYWGYFNLWGQGTLVTISSGGGGSGGGGSGGGGSGGGGASELVMTQTPASVSEPVGGTVTIKCQASQSIGSNLAWYQQKPGQPPKLLIYYESILASGVPSRFSGSGSGTEYTLTISGAQADDAATYYCQQGYSSSNIDNAFGGGTEVVVK
notes: as for B24
B29: M0856 scFv (scFv)
scFv: B28 scFv with D240L
notes: as for B24
B30: M0853 scFv (scFv)
scFv: QQQLVESGGGLVTPGTPLTLTCTVSGFSLSNYAMGWVRQAPGKGLEWIGTINDGGTAFYANWLKGRFTISRTSTTVDLKITSPTTEDTATYFCARAYGSNGDVYWGYFNLWGQGTLVTVSSGGGGSGGGGSGGGGSGGGGASELVMTQTASPVSAAVGGTVTINCQASQSISSRSLSWYQQKPGQPPKLLIYEASKLASGVPSRFSGSGSGTQFTLTISGVQADDAATYYCQQGYSSSNVDNFGGGTEVVVK
notes: as for B24
B31: M0852 scFv (scFv)
scFv: QQQLEESGGGLVTPGTPLTLTCTVSGFSLSNYAMGWVRQAPGKGLEWIGTINDGGTAFYANWLKGRFTISRTSTTVDLKITSPTTEDTATYFCARAYGSNGDVYWGYFNLWGQGTLVTVSSGGGGSGGGGSGGGGSGGGGASELVMTQTASPVSAAVGGTVTINCQASQSISSRSLSWYQQKPGQPPKLLIYEASKLASGVPSRFSGSGSGTQFTLTISGVQADDAATYYCQQGYSSSNVDNVFGGGTEVVVK
notes: as for B24
B32: M0857 scFv (scFv)
scFv: QQQLVESGGRLVTPGTPLTLTCTASGIDLNSNAMSWVRQGPGKGLEWIGDIWSGGYTDYASWAKGRFTISKTSTTVDLKMTSLTAADTATYFCARDRLAGDGVVDYDLWGQGTLVTISSGGGGSGGGGSGGGGSGGGGASELDMTQTPASVEVAVGGTVTIKCQASQNIYSNLAWYQQKPGQRPKLLIYGASTLASGVPSRFKGSGSGTEYTLTINGVQAADAATYYCQQGFSSSNVDNVFGGGTEVVVK
notes: as for B24
B33: M0849 scFv (scFv)
scFv: QEQLEESGGGLVTPGGTLTLTCTVSGFSLSNYAMGWVRQAPGKGLEWIGTINDGGTAFYAKWLKGRFTISRTSTTVDLKITSPTTEDTATYFCARAYGSNGDVYWGYFNLWGQGTLVTISSGGGGSGGGGSGGGGSGGGGASELVMTQTPSSVSEPVGGTVTIKCQASQSIGSNLAWYQQRPGQPPKLLIYSASTLASGVSSRFKGSGSGTESTLTISGVQAADAATYYCQQGYSSSNVDNVFGGGTELEIL
notes: as for B24

biological target: T1, HLA-A2/MAGE-A4 complex, recombinant (HLA-A*02:01 extracellular domain, human b2m, MAGE-A4 peptide 230-239 …) (human, UniProt P04439 25-299 at identity 0.94); P61769 21-119); test: SPR, monovalent
T1 construct: also called MAGE-A4 pMHC; MAGE-A4/HLA-A2 complex

B1 was tested. Which Kd did it give?
The Kd was 2.1 nM.

B2 was tested. Which Kd did it give?
Its Kd is 0.35 nM.

Which Kd does the source give for B3 here?
Its Kd is 2.8 nM.

B4 was tested. Which Kd did it give?
Its Kd is 3.2 nM.

Which Kd does the source give for B5 here?
Its Kd is 4.4 nM.

With B6 as the binder, how does the Kd read?
The Kd was 0.07 nM.

For B7, which Kd is on record?
The Kd was 0.09 nM.

How did the Kd turn out when B8 was run?
Its Kd is 8.3 nM.

With B9 as the binder, how does the Kd read?
The Kd was 6 nM.

How did the Kd turn out when B10 was run?
Its Kd is 2.4 nM.

With B11 as the binder, how does the Kd read?
The Kd was 2.1 nM.

With B12 as the binder, how does the Kd read?
Its Kd is 0.12 nM.

B13 was tested. Which Kd did it give?
Its Kd is 2.3 nM.

With B14 as the binder, how does the Kd read?
Its Kd is 1.5 nM.

How did the Kd turn out when B15 was run?
The Kd was 3.9 nM.

For B16, which Kd is on record?
Its Kd is 0.6 nM.

B17 was tested. Which Kd did it give?
The Kd was 0.12 nM.

B18 was tested. Which Kd did it give?
The Kd was 4.2 nM.

For B19, which Kd is on record?
The Kd was 1.2 nM.

Which Kd does the source give for B20 here?
The Kd was 0.05 nM.

How did the Kd turn out when B21 was run?
The Kd was 2.55 nM.

For B22, which Kd is on record?
The Kd was 2.9 nM.

For B23, which Kd is on record?
Its Kd is 0.09 nM.

biological target: T1, HLA-A2/MAGE-A4 complex, recombinant …; test: phage display biopanning and screening

Does B24 bind?
Result: binds

Does B25 bind?
Result: binds

Does B26 bind?
Result: binds

Does B27 bind?
Result: binds

Does B28 bind?
Result: binds

Does B29 bind?
Result: binds

Does B30 bind?
Result: binds

Does B31 bind?
Result: binds

Does B32 bind?
Result: binds

Does B33 bind?
Result: binds
